Measured values from US20240254255A1.

How the values were obtained:
[1] = target: human HER2 (ErbB2) expressed on the surface of cell lines and primary cells (human) (UniProt P04626); assay: flow cytometry, MDAMB361 cells, [Ab] 1.25 ug/ml
[2] = target: human HER2 (ErbB2) expressed on the surface of cell lines and primary cells (human) (UniProt P04626); assay: flow cytometry, ZR751 cells, [Ab] 20 ug/ml
[3] = target: human HER2 (ErbB2) expressed on the surface of cell lines and primary cells (human) (UniProt P04626); assay: flow cytometry, ZR751 cells, [Ab] 40 ug/ml
[4] = target: human HER2 (ErbB2) expressed on the surface of cell lines and primary cells (human) (UniProt P04626); assay: flow cytometry, MDAMB361 cells, [Ab] 5 ug/ml
[5] = target: human HER2 (ErbB2) expressed on the surface of cell lines and primary cells (human) (UniProt P04626); assay: flow cytometry, ZR751 cells, [Ab] 2.5 ug/ml
[6] = target: human HER2 (ErbB2) expressed on the surface of cell lines and primary cells (human) (UniProt P04626); assay: flow cytometry, ZR751 cells, [Ab] 0.31 ug/ml
[7] = target: human HER2 (ErbB2) expressed on the surface of cell lines and primary cells (human) (UniProt P04626); assay: flow cytometry, JIMT1 cells, [Ab] 5 ug/ml
[8] = target: human HER2 (ErbB2) expressed on the surface of cell lines and primary cells (human) (UniProt P04626); assay: flow cytometry, ZR751 cells, [Ab] 1.25 ug/ml
[9] = target: human HER2 (ErbB2) expressed on the surface of cell lines and primary cells (human) (UniProt P04626); assay: flow cytometry, MDAMB361 cells, [Ab] 40 ug/ml
[10] = target: human HER2 (ErbB2) expressed on the surface of cell lines and primary cells (human) (UniProt P04626); assay: flow cytometry, ZR751 cells, [Ab] 0.63 ug/ml
[11] = target: human HER2 (ErbB2) expressed on the surface of cell lines and primary cells (human) (UniProt P04626); assay: flow cytometry, JIMT1 cells, [Ab] 20 ug/ml
[12] = target: human HER2 (ErbB2) expressed on the surface of cell lines and primary cells (human) (UniProt P04626); assay: flow cytometry, ZR751 cells, [Ab] 5 ug/ml
[13] = target: human HER2 (ErbB2) expressed on the surface of cell lines and primary cells (human) (UniProt P04626); assay: flow cytometry, JIMT1 cells, [Ab] 1.25 ug/ml
[14] = target: human HER2 (ErbB2) expressed on the surface of cell lines and primary cells (human) (UniProt P04626); assay: flow cytometry, ZR751 cells, [Ab] 10 ug/ml
[15] = target: human HER2 (ErbB2) expressed on the surface of cell lines and primary cells (human) (UniProt P04626); assay: flow cytometry, JIMT1 cells, [Ab] 10 ug/ml
[16] = target: human HER2 (ErbB2) expressed on the surface of cell lines and primary cells (human) (UniProt P04626); assay: flow cytometry, MDAMB361 cells, [Ab] 20 ug/ml
[17] = target: human HER2 (ErbB2) expressed on the surface of cell lines and primary cells (human) (UniProt P04626); assay: flow cytometry, MDAMB361 cells, [Ab] 10 ug/ml

MFI A.U. [1]: 202 A.U.
MFI A.U. [2]: 2540 A.U.
MFI A.U. [3]: 3320 A.U.
MFI A.U. [4]: 253 A.U.
MFI A.U. [5]: 484 A.U.
MFI A.U. [6]: 199 A.U.
MFI A.U. [7]: 190 A.U.
MFI A.U. [8]: 312 A.U.
MFI A.U. [9]: 558 A.U.
MFI A.U. [10]: 271 A.U.
MFI A.U. [11]: 516 A.U.
MFI A.U. [12]: 696 A.U.
MFI A.U. [13]: 183 A.U.
MFI A.U. [14]: 1080 A.U.
MFI A.U. [15]: 240 A.U.
MFI A.U. [16]: 617 A.U.
MFI A.U. [17]: 605 A.U.
Substance: IC1 (isotype control antibody)
